The text below walks through data of US20230322908A1 (AC IMMUNE, published 2023).

Where no end group is shown, it is not given here.

For assay [1], the target named is T1, recombinant human full-length TDP-43 (TAR DNA-binding protein 43), soluble (human, UniProt Q13148 1-414).
T1 construct: Used on Luminex beads, coated on ELISA plates, and immobilized or injected in SPR; also called FL TDP-43; TDP-43 protein
The assay is described as follows: Luminex, FL TDP-43 on beads. Here is the method: Mice were euthanized and fusion with myeloma cells was performed using splenocytes from four individual mice. Screening for antibodies from the successfully fused hybridoma cell lines were performed as follows. Diluted (1:32) cell culture supernatants were analyzed using Luminex bead-based multiplex assay (Luminex, The Netherlands). Luminex beads were conjugated to FL TDP-43 and with capturing IgGs with anti-mouse IgG-Fc antibodies specific for the IgG1, IgG2a, IgG2b, IgG2c, and IgG3 subclasses (Jackson Immunoresearch, USA). Binding to beads conjugated to FL TDP-43 identified 386 hits derived from mice immunized with the FL TDP-43 liposomal vaccine.
Luminex assays with serial dilution of antibodies were performed as described before to determine half maximal effective concentration (EC50) of binding of antibodies to FL TDP-43. In summary, all tested antibodies bind to full length TDP-43 with high affinity.

The target of assay [2] is T2, TP-51 peptide (aa 352-414 of SEQ ID NO:1) (human).
T2 construct: Synthetic peptide (Pepscan)
T2 peptide: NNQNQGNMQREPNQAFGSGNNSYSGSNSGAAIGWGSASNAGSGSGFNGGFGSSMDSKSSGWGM
Description: SPR, mAb captured, TP-51 injected. A general note: Surface plasmon resonance follows binding to a sensor surface in real time, without labels.

Assay [3] concerns the target T1, recombinant human full-length TDP-43 …. The assay is described as follows: SPR, immobilized soluble TDP-43. Summed up:
(§1)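 Biacore SPR with soluble (150 RU) or aggregated (110 RU) full-length TDP-43 amine-coupled to CM5, or biotinylated TP-73 peptide captured on SA chip (400 RU). Antibodies injected (optimized: 3-fold series 300 to 1.2 nM, 300 s association, 600 s dissociation); glycine pH 1.7 regeneration; double-referenced, KD from global 1:1 fit.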

The target is the same in assay [4]. Description: indirect ELISA, coated FL TDP-43. The method, then:
Antibody binding to human FL TDP-43 was determined using an indirect ELISA. ELISA plate coating with 1 µg/ml human FL TDP-43 was performed overnight in carbonate buffer at 4° C. Plates were washed with 0.05% Tween-20/PBS and then blocked with 1% bovine serum albumin (BSA) in 0.05% Tween-20/PBS for 1 hour at 37° C. Antibodies purified from hybridoma supernatants were then added in a 3-fold serial dilution starting at 1 µg/ml, and incubated for 2 hours at 37° C. after which the plates were washed. An AP-conjugated anti-mouse IgG secondary antibody (Jackson Immunoresearch Laboratories, United Kingdom) was added at 1/1000 dilution in 0.05% Tween-20/PBS for 1 hour at 37° C. After the final wash, plates were incubated with pNPP (Sigma-Aldrich, Switzerland) phosphatase substrate solution, and read at 405 nm using an ELISA plate reader (Tecan, Switzerland).
On the technique in general: In an ELISA, binding on a coated surface is turned into a signal by an enzyme label.

Assay [5] addresses T3, recombinant human aggregated full-length TDP-43 (human, UniProt Q13148 1-414).
T3 construct: also called aggregated TDP-43; aggregated FL TDP-43
Description: SPR, immobilized aggregated TDP-43. Summed up: as §1

In assay [6] the target is T2, TP-51 peptide (aa 352-414 of SEQ ID …). Description: SPR, mAb captured, TP-51 injected; mean.
The target of assay [7] is T1, recombinant human full-length TDP-43 …. The assay is described as follows: SPR, mAb captured, FL TDP-43 injected; mean. Here is the method: Binding affinity to soluble FL TDP-43 was evaluated by determing the dissociation constants (KD) using surface plasmon resonance (SPR; Biacore T200, GE Healthcare Life Sciences). Goat-anti mouse capture antibody was immobilized on a CM5 Series S sensor chip (GE Healthcare Life Sciences) by amine coupling. Antibodies were captured at a concentration of 2-5 µg/ml in PBS-P⁺ (GE Healthcare Life Sciences) with a flow rate of 10 µl/min for 120 seconds resulting in a capture level of 350-1000 RU. […] Dissociation was recorded for 1 h followed by one regeneration with 10 mM glycine-HCl pH 1.7. Results obtained from binding kinetics were double-referenced using a blank flow cell and a buffer cycle and were evaluated with a global 1:1 fitting model with RI.

The target is the same in assay [8]. Description: SPR, immobilized soluble TDP-43; whole hybridoma antibody, first SPR protocol (90 s contact); soluble TDP-43 on the chip.
Assay [9] has the same target. The assay is described as follows: SPR, immobilized soluble TDP-43; Fab fragment, not whole antibody; soluble TDP-43 on the chip.
In assay [10] the target is T4, Biotinylated TP-73 peptide (aa 181-190 of SEQ ID NO:1) (human, also: biotinylated (position not given here)).
T4 construct: Immobilized on a streptavidin (SA) sensor chip
T4 peptide: KQSQDEPLRS
The assay is described as follows: SPR, biotinylated TP-73 on SA chip. Here is the method:
Binding avidity to soluble or aggregated FL TDP-43 was evaluated by determing the dissociation constants (KD) using surface plasmon resonance (SPR; Biacore T200, GE Healthcare Life Sciences). Recombinant human soluble or aggregated FL TDP-43 were immobilized on a CM5 Series S sensor chip (GE Healthcare Life Sciences) by amine coupling. Soluble TDP-43 was immobilized at a concentration of 5 µg/ml in 10 mM sodium acetate (pH 4.5) with a flow rate of 5 µl/min for 420 seconds resulting in an immobilization level of 150 RU. Aggregated TDP-43 was immobilized at a concentration of 50 µg/ml in 10 mM sodium acetate (pH 4.5) with a flow rate of 5 µl/min for 840 seconds resulting in an immobilization level of 110 RU. Biotinylated TP-73 peptide (aa 181-190 of SEQ ID NO:1) was immobilized on a Series S Sensor Chip SA (GE Healthcare Life Sciences) at a concentration of 5 µg/ml in PBS-P⁺ with a flow rate of 5 µl/min for 30 seconds resulting in an immobilization level of 400 RU. […] The antibodies were injected at a flow rate of 50 µl/min for 90 seconds contact time and 700 seconds dissociation phase followed by three regenerations with 10 mM glycine-HCl pH 1.7. […] Results obtained from binding kinetics were double-referenced using a blank flow cell and a buffer cycle and were evaluated with a global 1:1 fitting model with RI. […]

T3 sequence (Q13148 whole entry): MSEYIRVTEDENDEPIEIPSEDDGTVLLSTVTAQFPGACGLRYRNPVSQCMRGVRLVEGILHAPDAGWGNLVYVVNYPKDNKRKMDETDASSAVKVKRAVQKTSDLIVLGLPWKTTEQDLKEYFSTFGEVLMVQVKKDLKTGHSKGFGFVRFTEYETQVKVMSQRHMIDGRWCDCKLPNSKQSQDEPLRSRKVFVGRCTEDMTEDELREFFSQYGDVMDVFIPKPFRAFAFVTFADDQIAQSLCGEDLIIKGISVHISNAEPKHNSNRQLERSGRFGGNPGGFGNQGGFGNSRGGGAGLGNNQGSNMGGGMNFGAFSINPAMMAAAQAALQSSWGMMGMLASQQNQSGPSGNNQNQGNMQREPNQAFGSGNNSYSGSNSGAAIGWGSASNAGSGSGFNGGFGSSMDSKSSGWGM
T1 sequence (Q13148 whole entry): as above

B1: ACI-7069-633B12-Ab1 (antibody, mouse IgG2b, V domains shown)
VH: EVQLQQSGPELVKPGASVKISCKTSGFTFTEYSMHWVKQSHGKSLEWIGGINPNNGGTSYNQKFKGKATLTVDKSSSTAYMELRSLTSEDSAVYYCARESWGQGTTLTVSS
VL: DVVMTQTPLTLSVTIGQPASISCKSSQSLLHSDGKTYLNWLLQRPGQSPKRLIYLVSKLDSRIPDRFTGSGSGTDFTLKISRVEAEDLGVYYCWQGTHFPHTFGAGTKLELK
notes: Mouse IgG2b, kappa, from hybridoma; also called 633B12C8
In the case of B1, the figures for the EC50 in assay [1] and in [4] were less than 0.01 nM and 0.032 µg/mL, respectively. Besides, the Kd in assay [2] is 1.18 to 1.32 nM; in assay [5] it was 0.62 nM; in [6] it was 1.25 nM; in assay [7] it was 0.075 nM; in assay [8], 365 nM. In addition, the koff in assay [3] came to 0.000319 s⁻¹; in assay [5], 5.01e-05 s⁻¹; in [6] it was 0.000138 s⁻¹; in assay [7], 3.45e-06 s⁻¹. In addition, the kon in assay [3] is 873 M⁻¹ s⁻¹; in [5] it was 82100 M⁻¹ s⁻¹; in assay [6] it was 110000 M⁻¹ s⁻¹; in assay [7], 43900 M⁻¹ s⁻¹.

B2: 633B12C8 Fab (Fab, V domains shown)
VH: B1 VH
VL: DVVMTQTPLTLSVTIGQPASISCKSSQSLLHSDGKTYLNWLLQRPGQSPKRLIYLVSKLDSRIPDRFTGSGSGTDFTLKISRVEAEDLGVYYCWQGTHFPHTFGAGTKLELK
notes: Fab fragment; also called Fab fragment of ACI-7069-633B12-Ab1
As for B2, the koff is 0.000146 s⁻¹ in assay [3] and 0.000215 s⁻¹ in assay [5]. The figures for the kon in assay [3] and in assay [5] were 55100 M⁻¹ s⁻¹ and 32200 M⁻¹ s⁻¹, respectively. Further, the Kd stood at 6.9 nM in [5] and 2.8 nM in assay [9].

B3: ACI-7069-642D12-Ab1 (antibody, mouse IgG2b, V domains shown)
VH: EVQLQQSGAELVKPGASVRLSCTASGFNIKDPYMHWVRQRPKQGLEWIGRIDPADGNTKYDPKFQGKATLTADTSSNVAYLHLSSLTSEDTAVYYCARFYGSSHWYFDVWGAGTTVTVSS
VL: DIKMTQSPSSMYASLGERVTITCKASQDIKRYLSWYQQKPWKSPKILIYYATSLADGVPSRFSGTGSGQDYSLTISSLESDDVATYYCLQQGESPYTFGGGTKLEIK
notes: Mouse IgG2b, kappa, from hybridoma; also called 642D12B4
In the case of B3, the EC50 was less than 0.01 nM in [1] and 0.014 µg/mL in [4]. The Kd in assay [10] came out at 3.6 nM; in assay [3], 5.28 nM; in assay [5], 0.88 nM; in assay [7], 0.249 nM. Further, the koff in assay [3] was 0.000838 s⁻¹; in [5], 0.000131 s⁻¹; in assay [7] it was 2.76e-05 s⁻¹. The results for the kon in [3], in assay [5] and in assay [7] were 159000 M⁻¹ s⁻¹, 148000 M⁻¹ s⁻¹ and 110000 M⁻¹ s⁻¹, respectively.

As a reminder, the EC50 is the concentration needed to bring the measured effect to its halfway point. Broadly, the Kd is the constant that tells how readily two partners part at equilibrium. The koff is the first-order rate constant of dissociation. A word on the kon: it is the rate constant with which the complex forms.
